Response (fold increase) data for one variant are collected here from PMC6605747.

B1: Flag-tagged mouse CXCR4 C-terminally fused via a TEV protease cleavage site to tTA [mouse] / Myc-tagged COMMD8 C-terminally fused to TEV protease [not stated (mouse cDNA cloned for the MSCV2.2 vectors)] (parent)
chain 1: MEPEEGTPLWRLQKLPPEQGAGLLHKIIDGFCGRAYPAHQDYHSVWNSAEWKHVLEDVTTFFKAVVGKNFSEEETLQQLNQLNSCHQEAVLKCLKSRRNEIKQALLGEIVDISCAQLQDFDWQLKLALSSDKIATLQMPLLNLHLDVKEDDKVKPYTVEMSKEELQSLISSLEAANKVVLQLK
chain 2: MEPISVSIYTSDNYSEEVGSGDYDSNKEPCFRDENVHFNRIFLPTIYFIIFLTGIVGNGLVILVMGYQKKLRSMTDKYRLHLSVADLLFVITLPFWAVDAMADWYFGKFLCKAVHIIYTVNLYSSVLILAFISLDRYLAIVHATNSQRPRKLLAEKAVYVGVWIPALLLTIPDFIFADVSQGDISQGDDRYICDRLYPDSLWMVVFQFQHIMVGLILPGIVILSCYCIIISKLSHSKGHQKRKALKTTVILILAFFACWLPYYVGISIDSFILLGVIKQGCDFESIVHKWISITEALAFFHCCLNPILYAFLGAKFKSSAQHALNSMSRGSSLKILSKGKRGGHSSVSTESESSSFHSS

The variants in the experiment derive from B1. The experiment in a line: Tango assay. Conditions: with Myc-tagged COMMD8 C-terminally fused to TEV protease [not stated (mouse cDNA cloned for the MSCV2.2 vectors)]; HTL cells; firefly luciferase normalized to Renilla luciferase, fold increase over unstimulated cells; read off a plot.
Take chain 2 S353A S354A S355A: the response (fold increase) was found to be 0.87.
